The target of one experiment is CD33 on HL60 cells (UniProt P20138). Put plainly: cell-based or functional assay.
In another experiment the target is soluble CD33 (UniProt P20138). Put plainly: cell-based or functional assay.

A value given as a limit tells only on which side of the number the result lay.

“P67scFv/h.CD28/CD28Tm/FcRγ chimeric receptor (from UniProt P10747 118-134; P10747 135-161; P30273 45-86)” came in with an IL-2 production, cell surface-expressed antigen with respect to soluble antigen in the experiment with CD33 on HL60 cells of 3 fold deficit.

Substance “P67scFv/h.CD28/CD28Tm/TCRζ receptor (from UniProt P10747 118-134; P10747 135-161; P20963 31-142)” displayed an IL-2 production, cell surface-expressed antigen with respect to soluble antigen with CD33 on HL60 cells of more than 2 fold deficit. On to “P67scFv/h.CD28/Tm24/FcRγ chimeric receptor (from UniProt P10747 118-134; P30273 45-86)”, for which the IL-2 production, change against the CD28 transmembrane receptor (fold decrease) in the experiment with soluble CD33 was less than 3. In the experiment with CD33 on HL60 cells, this substance displayed an IL-2 production, cell surface-expressed antigen with respect to soluble antigen of 5 fold excess and an IL-2 production, change against the CD28 transmembrane receptor (fold increase) of more than 5.

In the experiment with CD33 on HL60 cells, “P67scFv/h.CD28/Tm24/TCRζ chimeric receptor (from UniProt P10747 118-134; P20963 31-142)” came in with an IL-2 production, cell surface-expressed antigen with respect to soluble antigen of 2 fold excess. In the experiment with soluble CD33, “P67scFv/h.CD28/Tm31/FcRγ chimeric receptor (from UniProt P10747 118-134; P30273 45-86)” showed an IL-2 production, change against the CD28 transmembrane receptor (fold decrease) of less than 3. Moreover, in the experiment with CD33 on HL60 cells, the IL-2 production, cell surface-expressed antigen with respect to soluble antigen stood at 5 fold excess and the IL-2 production, change against the CD28 transmembrane receptor (fold increase) is more than 5.

(Values after patent US7052906.)
